According to the nanobody polyreactivity screen of Harvey et al. (2022):

Test: yeast display, Sf9 membrane polyspecificity reagent, FACS + sequencing; frameworks hold sequencing errors
Outline: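 After 36–48 hours of galactose induction, yeast (Saccharomyces cerevisiae BJ5465) displaying a synthetic nanobody library were stained at 4 °C for 1 hour with 10% biotinylated, detergent-solubilized Sf9 membrane reagent. Streptavidin microbeads enriched the stained cells before FACS sorting into low and high (top ~1%) gates on anti-HA and streptavidin fluorescence. Each clone's polyreactivity label reflects its gate of origin.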
In the case of “QVQLVESGGGLVQAGGSLRLSCAASGRTFYVYTMGWYRQAPGKERELVAAITSGGSTNYADSVKGRFTISRDNAKNTVYLQMNSLKPEDTAVYYCAARVSTVFKRYYYWGQGTQVTVSS”, the “polyreactivity (PSR sort gate)” value is reported as “high polyreactivity”. With “QVQLVESGGGLVQAGVSLRLSCAASGITIKGNAKGWYRQAPGKERELVAAISRRGGNTYYADSVKGRFTISRDNAKNTVYLQMNSLKPEDTAVYYCAAEYNQSFDYWGQGTQVTVSS” the “polyreactivity (PSR sort gate)” value was “low polyreactivity”. With “QVQLVESGVGLVQAGGSLSLSCAASGTFVLYAMGWYRQAPGKERELVAAISKTGRTYYADSVKGRFTISRDNAKNTVYLQMNSLKPEDTAVYYCAAQRFSKFGYWGQGTQVTVSS” the “polyreactivity (PSR sort gate)” value was “high polyreactivity”. For “QVQLVESGGGLVQAGGSLRLSCAASGRNFYYYTMGWYRQAPGKERALVASISQSGARTYYADSVKGRFTISRDNSKNTVYLQMNSLKPVYTAVYYCNAVGTGGYHYWGQGTQVTVSS”, the “polyreactivity (PSR sort gate)” value was “high polyreactivity”. For “QVQLVESGGGLVQAGGSLRLSCAASGRIFGTNARVWYRQAPGKERELVADITSGGSTNYADSVKGRFTISRDNAKNTVYLQMNSLKPEDTAVYYCAADVIGDLRWYRDEYWGQGTQVTVSS”, the “polyreactivity (PSR sort gate)” value was “low polyreactivity”. With “QVQLVESGGGLVQAGGSLRLSCAASGRIFRYNAMGLYRQAPGKERELVAAISRSGGSTYYADSVKGRFTISRDNAKNTVYLQMNSLKPEDTAVYYCAVRRDGSGGNLDYWGQGTQVTVSS” the “polyreactivity (PSR sort gate)” value was “high polyreactivity”. In the case of “QVQLVESAGGLVQAGGSLRLRSAASGSTIWHNAMGWYRHAPGKERELVAGISGSGGSTYYADSVKGRFTISRDNAKNTVYLEMNSMKPDDTAVYYCATDGRSRVDGVRRGPYDYWGQGTHVTVSS”, the “polyreactivity (PSR sort gate)” value is reported as “low polyreactivity”. For “QVQLVESGGVLVQAGGSLRLSCAAAGRIFIWNAMGWYRQAPGKERELDAAISSGGTYYADSVKGRFTISRDNAKNTVYLQMNSLKPEDTAVYYCAADWEVYVSEFVYWGQGTQVTVSS”, the “polyreactivity (PSR sort gate)” value was “low polyreactivity”. In the case of “QVQLVESGGGLVQAGGSLRLSCAASGFTFKYYTMGWYRHAPGKETELDAVITRSGGSTYADSVKGRFTISRDNAKNTVYLQMNSLKPVDTAVYYCAKGAAGINLVRHDYWGQVTQVTVSS”, the “polyreactivity (PSR sort gate)” value is reported as “high polyreactivity”. With “QVQLEESGGGLVQAGGSLRLSCAASGITFNQYVMGWYRQAPGKEMELVAAISRSGATTYYADSVKGRFTISRDNAKNTVYLQMNSLKPEDTAVYYCAVRGSVSYTRYGYWGQGTQVTVSS” the “polyreactivity (PSR sort gate)” value was “high polyreactivity”. In the case of “QVQLVDSGGGLVQAGGSLRLSCAASGYIDGTYAMGWYRQAPRKERDLVASISSSGGSTYYADSVNGRFTISRDNAKNTVYLQMNSLKPEDTAVYYCNAERKIIAYLWWYDYWGQGTQVTVSA”, the “polyreactivity (PSR sort gate)” value is reported as “low polyreactivity”. In the case of “QVQLVESGGGLVQAGGSLRLICAASGSTFWSNAMGWYRQAPGKERELVATINSGDGTNYADSVKGRFTISRDNAKNTVYLQMNSLKPEDTAVYYCAAEKYYPWGWYTYDYWGQGTQVTVSS”, the “polyreactivity (PSR sort gate)” value is reported as “high polyreactivity”. In the case of “QVQLVESGGGLVQAGGSLRLSCAASGSTFYTYVMGWYRQAPGKERELVAAISSGGGNTYYADSVKGRFTISRDNAKYTVYLQMNSLKPEDTAVYYCAASHTSYYLRYGYWGQGTQVTVSS”, the “polyreactivity (PSR sort gate)” value is reported as “high polyreactivity”. With “QVHLVESGGGLVQAGGSLRLSCAASGSTFKIYAMGWYRQAPGKERELVAAITRGGSTNYADSVKGRFTISRDNAKNTVYLQMNSLKPEDTAVYYCAASYWYRRYGTYTYDYWGQGTQVTVSS” the “polyreactivity (PSR sort gate)” value was “high polyreactivity”. With “QVQLVESGGGLVQAGGSLRLSCAATGSTFDRYGMGWYRQAPGKERELVAAINSGDITNYADSVKGRFTISRDNAKNTVYLQMNSLKPEDTAVYYCNAGIRYFVVGRSSYDYWGQGTQVTVSS” the “polyreactivity (PSR sort gate)” value was “low polyreactivity”. For “QVQLVESGGGLVQAGGSLRLSCAASGRTFWRYTMGWYRQAPGKERELVAAISTNAGTTYYADSVKGRFTISRDNAKNTVYLQMNSLKPEDTAVYYCAARHPGNGYADPTNYYWGQGTQVTVSS”, the “polyreactivity (PSR sort gate)” value was “high polyreactivity”. In the case of “QVQLVESGGGLVQAGGSLRLSCAASGSTIPYYAMGWYRQAPGKERELVARIRWNGDSTFYADSVKGRFTISRDNAKNTVYLQMNSLKTEDSAVYYCAAYGKRLGERLNYYYWGQGTQVTVSS”, the “polyreactivity (PSR sort gate)” value is reported as “high polyreactivity”. With “QVQLVESGGGLVQAGGSLRLSCAASGNIFRSYMGWYRQAPGKEREFVAGITWRGGNTYYADSVKGRFTISRDNAKNTVYLQMNSLKPEDTAVYYCAAEIFVYYRWYDYWGQGTQVTVSS” the “polyreactivity (PSR sort gate)” value was “high polyreactivity”. With “QVQLVESGGGLVQAGGSLRLTCAASGFTFYRYDMGWYRQAPGKERELVAAITNNGGNTYYADSVKGRFTISRDNAKNTVYLQMNSLKPDVTAVYYCATKRYYWRGYWGQGTQVSVSS” the “polyreactivity (PSR sort gate)” value was “high polyreactivity”. With “QVQLVESGGGLVHAGGSLRLSCAASGFIFDRYVMGWYRQAPGKERDLVAAINRSGGSTYYADSVKGRFTISRDNAKNTVYLQMNSLKPEDTAVYYCAADRAGSFTTMDYWGHGTQVTVSS” the “polyreactivity (PSR sort gate)” value was “high polyreactivity”. For “QVQLVESGGGLVQAGGSLRLSCAASGRTFRFYARGWYRQAPGKERELVAAIRNGGRTNYADSVKGRFTISRDNAKISVFLQMNSLKPEDTAVYYCAIQPGISYRHYDYWGQGTQVTVSS”, the “polyreactivity (PSR sort gate)” value was “high polyreactivity”. For “QVQLVESGGGLVQAGGSLRISCAASGSTFVSYAMGWYRQAPGKERELVATISWRGGSTYYADSVKGRFTISRDNAKNRDYLHMNSLNPEDTAVYYCAADLWHSQYYYGYEYWGQGSQVTVSS”, the “polyreactivity (PSR sort gate)” value was “low polyreactivity”. For “QVQLVESGGGLVQAGGSLRLSCAASGSIFGAYTMGWYRPAPGKERELVAALSIGGSTNYADSVKGRFTISRDNAKNTVYLQMNSLKPEDTAVYYCNAEPHREDWWWAIGLYDYWGQGTQVTVSS”, the “polyreactivity (PSR sort gate)” value was “high polyreactivity”. For “QVQLVESGGGLVQAGGSLRLSCAASGRILTLYAMGWYRQAPGKERELVAGINRGDVSTYYADSVKGRFTISRDNAKNSVYLQMNSLKPEDTAVYYCYADPPPDYYPDKDNYWGQGSQVTVSS”, the “polyreactivity (PSR sort gate)” value was “low polyreactivity”. For “QVQLVESGGGLVQAGGSLRLSCAASGSTFVTNAMVWYRQAPGKEREFVAAIRWSAGNTYYADSVKGRFTISRDNAKNTVFLQMNSLKPEDTAVYYCAADIYEQRSTYYAEYYSWGQGTQVTVSS”, the “polyreactivity (PSR sort gate)” value was “low polyreactivity”. For “QVQLVESGGGLVQAGGSLRLSCAASGSIFGYYVMGWYRQAPGKERELVAAISGSDSSTYYADSVKGRFTISRDNAKNTVYLQMNSLKPEDTAVYYCNADLRYYPVEFDYWGQGTQVTVSS”, the “polyreactivity (PSR sort gate)” value was “low polyreactivity”. For “QVQLVESRGGLVQAGGSLRLSCAASGFSFAYYAMGWYTQAPGIERELVAGISAGYGSTYYADSVKGRFTISRDNAKNTVYLQMNSLKPEDTAVYYCAADTSSTSINGDIYDYEYWGQGTQVTVSS”, the “polyreactivity (PSR sort gate)” value was “low polyreactivity”. In the case of “QVQHVESRGGLVQAGGSLRLSCAASGFTSDSNAMGWYRQAPGKERELVAAIDSGGGSTYYADSVKGRFTISRDNAKNTVYLQMISLKPEDTAVYYCNAEQTPFVASLRVGEYGYWGQGTQVTVSS”, the “polyreactivity (PSR sort gate)” value is reported as “low polyreactivity”. With “QVQLVESGGGLVQAGGSLRLSCAASGFTFPWNVMGWYRQAPGKEREFVAAISKSAGSTFYADSVKGRFTISRDNAKNTVYLQMNSLKPEDTAVYYCAKPRVPGVHVQEMYYWGQGTQVTVSS” the “polyreactivity (PSR sort gate)” value was “low polyreactivity”. With “QVQLVESGGGLVQAGGSLRLSCAASGRISTYYTMGWYRQAPGKERELVAAISWSGTSTYYADSVKGRFTISRDNAKNTVYLQMNSLKPEDTAVYYCNARWRYPLDSVTDDYWGQGTQVTVSS” the “polyreactivity (PSR sort gate)” value was “high polyreactivity”. With “QVQLVESGGGLVQAGGSLRLSCAASGRTFSVNAMGWYRKAPGKERELVAAISWSTGSTYYADSVKGRFTISRDNAKNTVSLQMNSLKPEDTAVYYCAKLYEYRRSRYRTYGYWGQGTQVTVSS” the “polyreactivity (PSR sort gate)” value was “high polyreactivity”. In the case of “QVHLVESGGGLVQAGGSLRLSCAASGNTFYQYAMGWYRQAPGKERELVAAISSSGGSTYYADSVKGRFTISRDNAKNTVYLQMNSLKPEDTAVYYCATDKWYGYYYWGPGTQVTVSS”, the “polyreactivity (PSR sort gate)” value is reported as “low polyreactivity”. For “QVQLVESGGGLVQAGGSLRLSCAASGRIFYDYTMGWYRQAPGKERELVAAINSGGGSTYYADSVKGRFTISRDNAKNTVYLQMNSLKPEDTAVYYCNADGQWNIWEYDYWGQGTQVTVSS”, the “polyreactivity (PSR sort gate)” value was “high polyreactivity”. With “QVQLVESGGGLVQAGGSLRLSCAASGLTFKKYAMGWYRPAPGKERELVAAISSGSTTYYADSVKGRFTISRDNAKNTVYLQMNSLKPEDTAFYYCAARRKGTVASMGYWGQGTQVTVSS” the “polyreactivity (PSR sort gate)” value was “high polyreactivity”. With “QDQLVESGGGLVQAGGSLRLSCAASGLIFVGYALGGYRQAPGKERELVAAITSGGSTKYADSVKGRFTSSRDNAKNTVYLQMNSLKPEDTAVYYCAASGWRNWWSARNYYWGQGTQVTVSS” the “polyreactivity (PSR sort gate)” value was “high polyreactivity”. For “QVQLVESGGGLVQSGGSLRLSCAGSGSTLYYYVMGWYRQAPGKERELVAAISSSGDSTYYADSVKGRFTISRDNAKNTVSLQMNSLKPEDTAVYYCNAGWYFYGESTDDYWGQGTQVTVSS”, the “polyreactivity (PSR sort gate)” value was “low polyreactivity”. For “QVQLVESGGGLVQAGGSLRLSCAASGSTGFYGMGWYRQAPGKERELVAAITFRSGSTYYADSVKGRFTISRDNAKNTVYLQMNSLKPEDTAVYYCAAYSFNNGHRYDYWGQGTQVTVSS”, the “polyreactivity (PSR sort gate)” value was “high polyreactivity”. With “QVHLVESGGGLVQAGGSLRLSCAASGSTFQRYAMGWDRQAPGKERELDAAITIRGTRTYYADSVKGRFTISRDNAKNTVYLQMNSLKPEDTAVYYCAATYYWYGHPSRRYDYWGQGTQVTVSS” the “polyreactivity (PSR sort gate)” value was “high polyreactivity”. In the case of “QVQLVESGGRLVQAGGRLRLRSAASGFTFSRNAMGWYRQAPGKERELVAAIDSGGSTDYAVSVKGRFTISRDNAKNTVYLQMNSLKPADTAVYYCAKASSATRYVQLRQDYDYWGQGTQVTVSS”, the “polyreactivity (PSR sort gate)” value is reported as “low polyreactivity”. With “QVQLVESGGGLVQAGGSLRLSCAASGSTFTSYAMGWYRQAPGKERELVASIRSTSGRTYYADSVKGRFTISRDNAKNTVYLQMNSLKPEDTAVYYCAAATYGTWWTYADNPYDYWGQGTQVTVSS” the “polyreactivity (PSR sort gate)” value was “high polyreactivity”. With “LVQLVESGGGLVQAGGSLRLSCAASGRIFLKYAMGWYRQSPGKERELVAAISRRGASTYYADSVKGRFTISRDYGKNSVYLLMKSLKPDDTAVYYCNARTSSGMDYWGQGTQVTVSS” the “polyreactivity (PSR sort gate)” value was “high polyreactivity”. With “QVQLVESGGGLVQAGGSLRLSCAASGRIFRYNAMGWYRQPPGKEREFVARISVITGRTYYADSVKGRFTISRDNAKNTVYLQMNSLKPEDTAVYFCAADAGYNYRYLLRGDYWGQGTQVTVSS” the “polyreactivity (PSR sort gate)” value was “high polyreactivity”. With “QVQLVESGGGLVQAGGSLRLSCAASGFIFIIYAMGWYRQAPGKERELVAGIRWSGGSTYYADSVKGRFTISRDNAKNTVYLQMNSLKPEDTAVYYCIKDRGSLTLYTYDYWGQGTQVTVSS” the “polyreactivity (PSR sort gate)” value was “low polyreactivity”.
